Results on one molecule are retold here after article PMC5760527 (2018).

As a reminder, the Kd is the concentration at which binding is half-saturated.

The assay deals with Cx43 EL1 peptide extracellular loop 1 (EL1) (Mus musculus, UniProt P23242). In words: SPR.
Chain of Cx43 EL1 peptide extracellular loop 1 (EL1) (P23242 45-76): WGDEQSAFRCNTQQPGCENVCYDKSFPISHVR

B1: P4 peptide (Cx43 mimetic) (peptide)
chain: QPGCEN
Molecule B1 displayed a Kd of 20 µM.
